Test system: platelets
Assay: Platelet aggregation
Type: cell-based, human

B1: ApoD: plasma lipocalin constituent of HDL, recombinant 6xHis, expressed in HEK293 cells (protein, UniProt P05090 21-189, looked up)
Apolipoprotein D: QAFHLGKCPNPPVQENFDVNKYLGRWYEIEKIPTTFENGRCIQANYSLMENGKIKVLNQELRADGTVNQIEGEATPVNLTEPAKLEVKFSWFMPSAPYWILATDYENYALVYSCTCIIQLFHVDFAWILARNPNLPPETVDSLKNILTSNNIDVKKMTVTDQVNCPKLS
modifications: 6xHis tag
did not inhibit: Inhibition of AA-induced platelet aggregation (low doses of AA, ApoD expressed in HEK293 cells) | Inhibition of U46619-induced platelet aggregation (low doses of U46619, ApoD expressed in HEK293 cells) | Inhibition of collagen-induced platelet aggregation (low doses of collagen, ApoD expressed in HEK293 cells)

Reference: publication PMC3408606 (Thrombosis and haemostasis, 2011)
